These results are taken from paper PMC6731095, “Regulation of Eag1 gating by its intracellular domains” (eLife, 2019).

Series [1] has as its target T1, Calmodulin (human, UniProt P0DP24 1-149).
T1 construct: Calmodulin, Homo sapiens, Uniprot P0DP24; Calcium (1 mM CaCl2) was present throughout; also called CaM; source: HEK293S GnTI-, infected with BacMam baculovirus together with Eag1 Δ3–13 baculovirus, co-purified with Eag1 Δ3–13
The series can be described thus: cryo-EM structure; Eag1 Δ3–13 and CaM co-expressed and co-purified; 20 mM Tris pH 8, 300 mM KCl, 1 mM CaCl2, 0.05% digitonin; 5 mg/ml; C4 symmetry imposed; two conformations. Particulars: both partners purified.

Series [2] concerns the molecule itself. The series is described as above.

B1: Eag1 Δ3–13 (rat Kv10.1/Eag1/Kcnh1, residues 3–13 deleted, C-terminal unstructured region 773-886 removed) (natural protein, UniProt Q63472 1-962, looked up)
chain: MTQNTFLENIVRRSNDTNFVLGNAQIVDWPIVYSNDGFCKLSGYHRAEVMQKSSACSFMYGELTDKDTVEKVRQTFENYEMNSFEILMYKKNRTPVWFFVKIAPIRNEQDKVVLFLCTFSDITAFKQPIEDDSCKGWGKFARLTRALTSSRGVLQQLAPSVQKGENVHKHSRLAEVLQLGSDILPQYKQEAPKTPPHIILHYCVFKTTWDWIILILTFYTAILVPYNVSFKTRQNNVAWLVVDSIVDVIFLVDIVLNFHTTFVGPAGEVISDPKLIRMNYLKTWFVIDLLSCLPYDVINAFENVDEGISSLFSSLKVVRLLRLGRVARKLDHYIEYGAAVLVLLVCVFGLAAHWMACIWYSIGDYEIFDEDTKTIRNNSWLYQLALDIGTPYQFNGSGSGKWEGGPSKNSVYISSLYFTMTSLTSVGFGNIAPSTDIEKIFAVAIMMIGSLLYATIFGNVTTIFQQMYANTNRYHEMLNSVRDFLKLYQVPKGLSERVMDYIVSTWSMSRGIDTEKVLQICPKDMRADICVHLNRKVFKEHPAFRLASDGCLRALAMEFQTVHCAPGDLIYHAGESVDSLCFVVSGSLEVIQDDEVVAILGKGDVFGDVFWKEATLAQSCANVRALTYCDLHVIKRDALQKVLEFYTAFSHSFSRNLILTYNLRKRIVFRKISDVKREEEERMKRKNEAPLILPPDHPVRRLFQRFRQQKEARLAAERGGRDLDDLDVEKGNALTDHTSANHSLVKASVVTVRESPATPVSFYPIPEQTLQATVLEVKHELKEDIKALNAKMTSIEKQLSEILRILMSRGSSQSPQDTCEVSRPQSPESDRDIFGAS
notes: Kv10.1/Eag1/Kcnh1, Rattus norvegicus, Uniprot Q63472; whole channel with residues 3-13 of the PAS loop deleted and the C-terminal unstructured region 773-886 removed; The GFP tag was removed with PreScission protease; also called calmodulin insensitive mutant; not shown: GFP, C-terminal, cleaved; His6, C-terminal, cleaved
For B1, the binding result in series [1] is on record as “binds”. Besides, the “stoichiometry N” value in series [2] was found to be 4.
